According to article doi:10.1101/2025.04.25.650662 (bioRxiv, 2025):

What was measured:
[1] = target: Leucine-rich repeat containing, G protein-coupled receptor 5 (LGR5), human, on HEK293T cells (HEK293-LGR5-DeltaC) (human) (UniProt O75473); assay: whole-cell binding assay
[2] = target: Leucine-rich repeat containing, G protein-coupled receptor 4 (LGR4), human, on HEK293T cells (human, UniProt Q9BXB1 25-951); assay: whole-cell binding assay

Chain of Leucine-rich repeat containing, G protein-coupled receptor 5 (LGR5), human, on HEK293T cells (HEK293-LGR5-DeltaC) (human) (O75473 22-907, stated change not applied): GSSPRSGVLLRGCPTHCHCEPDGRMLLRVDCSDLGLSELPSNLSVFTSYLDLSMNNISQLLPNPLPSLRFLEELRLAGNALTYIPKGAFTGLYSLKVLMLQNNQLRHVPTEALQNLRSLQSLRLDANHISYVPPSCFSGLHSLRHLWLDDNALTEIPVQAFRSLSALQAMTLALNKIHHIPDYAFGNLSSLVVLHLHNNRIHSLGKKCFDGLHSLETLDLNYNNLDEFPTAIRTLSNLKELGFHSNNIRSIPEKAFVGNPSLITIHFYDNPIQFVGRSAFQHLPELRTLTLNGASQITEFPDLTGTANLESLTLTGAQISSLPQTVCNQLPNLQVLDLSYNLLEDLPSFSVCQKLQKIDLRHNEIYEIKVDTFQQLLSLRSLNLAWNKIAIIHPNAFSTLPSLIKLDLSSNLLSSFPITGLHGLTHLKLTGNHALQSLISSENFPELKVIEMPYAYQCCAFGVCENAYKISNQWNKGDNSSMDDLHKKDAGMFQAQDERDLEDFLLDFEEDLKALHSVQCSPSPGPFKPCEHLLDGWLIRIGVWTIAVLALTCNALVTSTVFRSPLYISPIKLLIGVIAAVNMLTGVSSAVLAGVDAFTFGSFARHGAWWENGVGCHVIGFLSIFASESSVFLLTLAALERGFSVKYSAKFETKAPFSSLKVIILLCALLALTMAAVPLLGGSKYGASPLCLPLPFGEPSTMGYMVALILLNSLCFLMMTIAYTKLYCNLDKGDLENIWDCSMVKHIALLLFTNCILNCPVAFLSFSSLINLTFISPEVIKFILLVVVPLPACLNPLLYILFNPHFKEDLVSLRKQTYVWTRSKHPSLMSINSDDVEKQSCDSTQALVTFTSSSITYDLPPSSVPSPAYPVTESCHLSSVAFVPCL

Kd [1]: 0.3 nM | Kd [2]: 0.2 nM
B1: R232, RSPO2 furin domain M68T/Q70R double mutant fused to human IgG1-Fc (Fc fusion)
chain: CKGCLSCSKDNGCSRCQQKLFFFLRREGTRRYGECLHSCPSGYYGHRAPDMNRCARCRIENCDSCFSKDFCTKCKVGFYLHRGRCFDECPDGFAPLEETMEC
